Drawing on article PMC3928310, “Model of a DNA-Protein Complex of the Architectural Monomeric Protein MC1 from Euryarchaea”, this text covers binding result and Kd for three molecules.

For data set [1], the target named is T1, MC1 WT (Methanosarcina thermophila CHTI55, UniProt P12770 1-93).
T1 sequence: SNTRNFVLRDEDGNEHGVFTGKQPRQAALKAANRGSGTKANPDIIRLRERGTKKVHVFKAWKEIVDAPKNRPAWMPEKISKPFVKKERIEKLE
Kind of data set: NMR PRE; Mn2+ (EDTA-chelated probe); protein:DNA 1:1.2; EMSA: 10 mM Tris-HCl pH 7.5, 150 mM NaCl, 1 mM EDTA, 15 ug/ml BSA, 8% glycerol, 15 min at 20 C, 0.1 nM DNA, TBE gel; NMR PRE: 10 mM phosphate pH 6, 100 mM NaCl, 10% D2O. Conditions: protein: recombinant; label: paramagnetic dT-EDTA-Mn2+; blunt.

Data set [2] addresses T1, MC1 WT. Kind of data set: NMR chemical shift perturbation; EMSA: 10 mM Tris-HCl pH 7.5, 150 mM NaCl, 1 mM EDTA, 15 ug/ml BSA, 8% glycerol, 15 min at 20 C, 0.1 nM DNA, TBE gel; NMR PRE: 10 mM phosphate pH 6, 100 mM NaCl, 10% D2O. Conditions: protein: recombinant; blunt. In general terms: In EMSA bound probe runs differently from free probe, usually more slowly.
In data set [3] the target is T1, MC1 WT. Kind of data set: EMSA; EMSA: 10 mM Tris-HCl pH 7.5, 150 mM NaCl, 1 mM EDTA, 15 ug/ml BSA, 8% glycerol, 15 min at 20 C, 0.1 nM DNA, TBE gel; NMR PRE: 10 mM phosphate pH 6, 100 mM NaCl, 10% D2O. The conditions noted are these: protein: recombinant; label: 5'-32P on one strand; blunt.

B1: DNA1* (dsDNA)
DNA 1: AAAAACACACACCCA
DNA 2: TGGGTGTGTGTTTTT
modifications: dT-EDTA (Mn2+) at the 5'-terminal T16 of strand 2
On to B1, for which the binding result with MC1 WT [1] is given as “binds”.

B2: 15 bp NMR duplex (dsDNA)
DNA 1: AAAAACACACACCCA
DNA 2: TGGGTGTGTGTTTTT
Regarding B2, the binding result with MC1 WT [2] is listed as “binds”.

B3: 26 bp EMSA duplex (dsDNA)
DNA 1: GCCTCAAAAACACACACCCCCGACAG
DNA 2: CTGTCGGGGGTGTGTGTTTTTGAGGC
One may read the Kd as the free concentration of one partner at which half of the binding sites on the other are occupied at equilibrium, for simple one-to-one binding. For the molecule B3, the Kd in the data set with MC1 WT [3] was found to be 1.2 ± 0.1 nM.
